Reference: article PMC4555227, “GABPα Binding to Overlapping ETS and CRE DNA Motifs Is Enhanced by CREB1: Custom DNA Microarrays”

T1: GABPα-GST (ETS domain);CREB1 B-ZIP domain (mouse?;mouse, UniProt Q00422;Q01147 320-400;269-327, |)
T1 sequence 1: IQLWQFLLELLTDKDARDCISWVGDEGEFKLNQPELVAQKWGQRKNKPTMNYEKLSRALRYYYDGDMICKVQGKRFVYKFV
T1 sequence 2: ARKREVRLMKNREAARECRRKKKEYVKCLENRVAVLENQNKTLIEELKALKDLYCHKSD

T2: GABPα-GST (ETS domain) (UniProt Q00422 320-400)
T2 sequence: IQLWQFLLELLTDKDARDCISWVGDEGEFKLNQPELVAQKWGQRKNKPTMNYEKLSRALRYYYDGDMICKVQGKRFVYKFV

B1: GC SNP GCGGAACT (dsDNA)
DNA 1: GTCCTCAAGAGCGGAACTGACGTCACGACTCAGGTGGGACACACTTTAACACATGGAGAG
DNA 2: CTCTCCATGTGTTAAAGTGTGTCCCACCTGAGTCGTGACGTCAGTTCCGCTCTTGAGGAC
B2: GC SNP GGGGAAGT (dsDNA)
DNA 1: GTCCTCAAGAGGGGAAGTGACGTCACGACTCAGGTGGGACACACTTTAACACATGGAGAG
DNA 2: CTCTCCATGTGTTAAAGTGTGTCCCACCTGAGTCGTGACGTCACTTCCCCTCTTGAGGAC
B3: GC SNP GCGGAAA(T) (dsDNA)
DNA 1: GTCCTCAAGAGCGGAAATGACGTCACGACTCAGGTGGGACACACTTTAACACATGGAGAG
DNA 2: CTCTCCATGTGTTAAAGTGTGTCCCACCTGAGTCGTGACGTCATTTCCGCTCTTGAGGAC
B4: CC SNP TCGGAAGT (dsDNA)
DNA 1: GTCCTCAAGATCGGAAGTGACGTCACGACTCAGGTGGGACACACTTTAACACATGGAGAG
DNA 2: CTCTCCATGTGTTAAAGTGTGTCCCACCTGAGTCGTGACGTCACTTCCGATCTTGAGGAC
B5: CC SNP CCGGAACT (dsDNA)
DNA 1: GTCCTCAAGACCGGAACTGACGTCACGACTCAGGTGGGACACACTTTAACACATGGAGAG
DNA 2: CTCTCCATGTGTTAAAGTGTGTCCCACCTGAGTCGTGACGTCAGTTCCGGTCTTGAGGAC
B6: CC SNP CCGGACGT (dsDNA)
DNA 1: GTCCTCAAGACCGGACGTGACGTCACGACTCAGGTGGGACACACTTTAACACATGGAGAG
DNA 2: CTCTCCATGTGTTAAAGTGTGTCCCACCTGAGTCGTGACGTCACGTCCGGTCTTGAGGAC
B7: CC SNP CGGGAAGT (dsDNA)
DNA 1: GTCCTCAAGACGGGAAGTGACGTCACGACTCAGGTGGGACACACTTTAACACATGGAGAG
DNA 2: CTCTCCATGTGTTAAAGTGTGTCCCACCTGAGTCGTGACGTCACTTCCCGTCTTGAGGAC
B8: CC SNP CCGGAAA(T) (dsDNA)
DNA 1: GTCCTCAAGACCGGAAATGACGTCACGACTCAGGTGGGACACACTTTAACACATGGAGAG
DNA 2: CTCTCCATGTGTTAAAGTGTGTCCCACCTGAGTCGTGACGTCATTTCCGGTCTTGAGGAC
B9: ETS-CRE GC motif probe (dsDNA)
DNA 1: GTCCTCAAGAGCGGAAGTGACGTCACGACTCAGGTGGGACACACTTTAACACATGGAGAG
DNA 2: CTCTCCATGTGTTAAAGTGTGTCCCACCTGAGTCGTGACGTCACTTCCGCTCTTGAGGAC

The binders below were run against T1, GABPα-GST (ETS domain);CREB1 B-ZIP … (assay: PBM; 8 ng:8 ng plasmid; PBM as in Badis et al. 2009 (buffer, salt, pH, temperature not stated); IVT proteins from 2.5-100 ng plasmid; Alexa Fluor 647 anti-GST detection). Details: protein: ivt;ivt; tags: GST;none; copies: 1;2; blunt.
Work on B1 yielded a binding signal of 8 fold increase by CREB1. For B2, the binding signal was about 8 fold increase by CREB1. B3 was tested, and the binding signal was 16 fold increase by CREB1.

Target: T1, GABPα-GST (ETS domain);CREB1 B-ZIP …
Test: as above
Details: protein: ivt;ivt; tags: GST;none; copies: 1;2; blunt
Remark: another data set of the same source
B4 was tested, and the binding signal was < 20 fold increase by CREB1 (up to). B5 gave a binding signal of 20 fold increase by CREB1. For B6, the binding signal was < 20 fold increase by CREB1 (up to; abstract up to 23, most enhanced SNP). B7 showed a binding signal of about 16 fold increase by CREB1. B8 showed a binding signal of 2 fold increase by CREB1.

The binders below were run against T2, GABPα-GST (ETS domain) (assay: PBM; GABPα-GST alone; PBM as in Badis et al. 2009 (buffer, salt, pH, temperature not stated); IVT proteins from 2.5-100 ng plasmid; Alexa Fluor 647 anti-GST detection). Details: protein: ivt; tags: GST; blunt.
Work on B9 yielded a binding signal of 4 fold weaker than N1.
